Values quoted from earlier work, collected in patent publication US9265777B2, “Antiparasitic agent for fish and method of controlling proliferation of fish parasites” (NIPPON SUISAN KAISHA, LTD., priority 2009, dated 2016).

System: White spot disease
Settings: 40 mg per 1 kg of fish body weight orally per day, 28-day experimental period

B1: lactoferrin: marketed as an additive for fisheries (protein, UniProt P24627 20-708, looked up)
Lactotransferrin: APRKNVRWCTISQPEWFKCRRWQWRMKKLGAPSITCVRRAFALECIRAIAEKKADAVTLDGGMVFEAGRDPYKLRPVAAEIYGTKESPQTHYYAVAVVKKGSNFQLDQLQGRKSCHTGLGRSAGWIIPMGILRPYLSWTESLEPLQGAVAKFFSASCVPCIDRQAYPNLCQLCKGEGENQCACSSREPYFGYSGAFKCLQDGAGDVAFVKETTVFENLPEKADRDQYELLCLNNSRAPVDAFKECHLAQVPSHAVVARSVDGKEDLIWKLLSKAQEKFGKNKSRSFQLFGSPPGQRDLLFKDSALGFLRIPSKVDSALYLGSRYLTTLKNLRETAEEVKARYTRVVWCAVGPEEQKKCQQWSQQSGQNVTCATASTTDDCIVLVLKGEADALNLDGGYIYTAGKCGLVPVLAENRKSSKHSSLDCVLRPTEGYLAVAVVKKANEGLTWNSLKDKKSCHTAVDRTAGWNIPMGLIVNQTGSCAFDEFFSQSCAPGADPKSRLCALCAGDDQGLDKCVPNSKEKYYGYTGAFRCLAEDVGDVAFVKNDTVWENTNGESTADWAKNLNREDFRLLCLDGTRKPVTEAQSCHLAVAPNHAVVSRSDRAAHVKQVLLHQQALFGKNGKNCPDKFCLFKSETKNLLFNDNTECLAKLGGRPTYEEYLGTEYVTAIANLKKCSTSPLLEACAFLTR
In the case of B1, the “infection during experimental period” value is listed as “no infection was observed”.
